The source of these data is PMC4899871.

In this experiment the target is GST-HA-ATG16L1-231–607 produced in yeast (extended WDD construct that includes residue 300), Q676U5. The experiment can be described thus: peptide microarray. The following applies: chain shown with the change, probe purified from yeast, mean ± s.d., n=9 replicas, read off a plot.
Sequence of GST-HA-ATG16L1-231–607 produced in yeast (extended WDD construct that includes residue 300), Q676U5 (Q676U5 231-607): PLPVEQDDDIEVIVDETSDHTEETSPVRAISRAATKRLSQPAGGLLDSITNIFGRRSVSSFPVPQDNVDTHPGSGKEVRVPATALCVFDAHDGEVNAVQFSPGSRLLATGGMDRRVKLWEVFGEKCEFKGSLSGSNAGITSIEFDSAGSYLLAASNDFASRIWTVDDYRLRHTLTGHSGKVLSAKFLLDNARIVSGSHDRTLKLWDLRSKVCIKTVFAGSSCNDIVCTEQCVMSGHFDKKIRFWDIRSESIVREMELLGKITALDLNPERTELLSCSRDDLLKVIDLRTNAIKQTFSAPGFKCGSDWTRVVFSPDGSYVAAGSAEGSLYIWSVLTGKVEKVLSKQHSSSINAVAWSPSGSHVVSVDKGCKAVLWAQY

In the case of TAVEQAVPSAKLSIAGDAE, the percent of parent (parent: est. 100, scale: % of WT peptide) amounted to 12. For the same molecule, the response (parent: est. 1100) is 200 a.u. (OD635).
